Assay results reported in doi:10.1101/351726.

Assays:
[1] = target: full-length MyD88 fused to GFP at the N-terminus (human) (UniProt Q99836); test: photon counting histogram
[2] = target: full-length MyD88 fused to GFP at the N-terminus (human) (UniProt Q99836); test: single-molecule fluorescence brightness analysis

Substance: full-length MyD88 fused to GFP at the N-terminus (from UniProt Q99836 1-296) (natural protein)
- stoichiometry N [1]: > 100 proteins
- Kd [2]: 120 nM
- stoichiometry N [2]: > 80 GFP
